Data: publication PMC4057808, “Molecular characterization of Clonorchis sinensis secretory myoglobin: Delineating its role in anti-oxidative survival” (Parasites & Vectors, 2014)

Test system: COc1ccccc1O
Test: purified protein
Settings: H2O2 (0.2 mM in methods, ~20 μM in table note), 50 mM sodium phosphate pH 7.0, 20 °C, guaiacol varied 0.08-2.5 mM as printed

“rCsMb (CsMb, Clonorchis sinensis myoglobin) (Clonorchis sinensis)” gave a Km of 81 mM.
